Consider five molecules from US8637043B2, “Compositions useful as ligands for the formyl peptide receptor like 1 receptor and methods of use thereof” (Chemocentryx, Inc., priority 2001, dated 2014).

Assay [1] relates to immature Dendritic Cells. The assay is described as follows: Calcium mobilization, immature dendritic cells. The assay is classed as cell-based, human. Here is the method:
Human recombinant CKβ8-1(25-116) chemokine was obtained from R&D Systems (Minneapolis, Minn.). The peptide SHAAGtides SEQ ID NO:1 and SEQ ID NO:6 and a control protein (the reverse sequence of SEQ ID NO:1) were synthesized and HPLC-purified using routine techniques as described in Sambrook et al., 1989, and Ausubel et al., 1999.
Immature DCs were derived by culturing CD14+ monocytes in the presence of GM-CSF and IL4. Briefly, monocytes were cultured in a T-175 flask at 10^6 cells/ml in RPMI/10% FCS. Recombinant human GM-CSF and IL4 were added on day 0, 2, 4 and 6 to a final concentration of 1000 u/ml and 500 u/ml, respectively. Cells were harvested on day 7 as immature DCs and characterized for surface protein expression by FACS analysis. DC maturation was carried out by culturing day 6 immature DCs in macrophage-conditioned medium (MCM). Briefly, day 6 immature DCs were harvested by centrifugation and resuspended in MCM at 10^6 cells/ml. The medium was supplemented with 1000 u/ml of GM-CSF and 500 u/ml IL4. After three more days of culture, cells were harvested as mature DCs and characterized by surface protein expression flow cytometry.
(§1) Ca^2+ mobilization responses were performed using an intracellular ratiometric fluorescent dye, Indo-1. Cells were loaded with Indo-1/AM (3 μM; Molecular Probes (Eugene, Oreg.)) in culture medium (45 min, 20° C., 10^7 cells/mi). After dye loading, cells were washed once (10 ml PBS) and resuspended at 10^6 cell/ml in HBSS containing 1% FBS. Cytosolic [Ca^2+] release was determined using excitation at 350 nm using a Photon Technology International fluorimeter (excitation at 350 nm, ratioed dual emission at 400 and 490 nm).
Background: Calcium assays in cells follow changes in intracellular calcium, usually with a dye or a luminescent sensor.

Assay [2] has as its target T1, human FPRL1 (Homo sapiens, UniProt P25090).
T1 construct: Full length cDNA encoding FPRL1 was cloned, using the polymerase chain reaction (PCR), from genomic DNA isolated from undifferentiated HL-60 cells; expressed in transfected cells; linearized FPRL1/pcDNA3.1, electroporation
T1 sequence (P25090 1-351): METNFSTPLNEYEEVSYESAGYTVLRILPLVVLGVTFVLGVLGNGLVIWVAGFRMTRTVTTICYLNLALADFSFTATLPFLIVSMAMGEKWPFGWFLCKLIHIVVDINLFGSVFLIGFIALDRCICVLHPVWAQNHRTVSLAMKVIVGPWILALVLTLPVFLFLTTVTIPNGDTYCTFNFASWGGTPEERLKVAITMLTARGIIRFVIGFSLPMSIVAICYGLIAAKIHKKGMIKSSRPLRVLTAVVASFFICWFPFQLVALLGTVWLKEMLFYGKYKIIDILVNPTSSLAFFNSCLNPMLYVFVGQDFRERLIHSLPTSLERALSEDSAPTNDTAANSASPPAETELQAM
The assay can be described thus: Calcium flux in FPRL1-L1.2 transfectants. The class given is cell-based. The following applies: for Designation and FPRL1 Activity: qualitative rating high, moderate, low, see Example 9; for Notes: activity: qualitative rating, Table 6; for calcium release / mobilization: FPRL1 expressing L1.2 cells. Here is the method: (§2) Ca^2+ mobilization responses were performed using the intracellular ratiometric fluorescent dye, lndo-1. Cells were loaded with Indo-1/AM (3 μM; Molecular Probes, Eugene, Oreg.) in culture medium (45 min, 20° C., 10^7 cells/ml). After dye loading, cells were washed once with 10 ml PBS) and resuspended at 10^6 cell/ml in HBSS containing 1% FBS. Cytosolic [Ca^2+] release was determined using excitation at 350 nm using a Photon Technology International fluorimeter (excitation at 350 nm, ratioed dual emission at 400 and 490 nm).
The functional activities of CKβ8-1 (25-116) were investigated in human FPRL1-L1.2 transfectants and in native L1.2 cells. Stable expression of formyl peptide-like receptor 1 (FPRL1) in L.1.2 cell was obtained as follows. Full length cDNA encoding FPRL1 was cloned, using the polymerase chain reaction (PCR), from genomic DNA isolated from undifferentiated HL-60 cells. […] Twenty micrograms of the FPRL1/pcDNA3.1 construct were linearized by digestion with Bsm1 (New England Biolabs, Beverly, Mass.) and used to transfect the murine B cell line L1.2 as follows. Twenty five million cells were washed twice and resuspended in 0.8 ml of PBS. The cells were incubated for 10 min at room temperature with the linearized FPRL/pcDNA3.1 construct DNA and transferred to a 0.4-cm cuvette, and a single electroporation pulse was applied at 250 V, 960 μF. Electroporated cells were incubated for 10 min at room temperature and transferred to culture at 37° C. in RPMI supplemented with 10% FCS. Geneticin (G418) was added to a final concentration of 800 μg/ml 48 h posttransfection and the cells plated into 96-well plates at 25,000 cells/well. After 2-3 weeks under drug selection, stable geneticin-resistant FPLR1 expressing cells were assessed for their ability to mobilize Ca^++ in response to SHAAGtide or CKbeta 8-1 at concentrations of 1 to 1000 nM.
A calcium flux test was performed on these transfectants using the method described in Example 1.
Stable expression of human FPRL1 in L1.2 cells was obtained as in Example 6. Calcium flux tests were conducted on the transfectants using the method described in Example 1. Chemokines (CKβ8(1-99), CKβ8(25-99), CKβ8-1(1-116) and CKβ8-1(25-116), were prepared as in Example 1. W peptides 1 and 2 were obtained as in Example 6. In addition, and the following SHAAGtide sequences and truncated variants (prepared as in Example 8) were tested:
All ligands were added in a dose response manner and the peak calcium flux response determined.

Assay [3] has as its system human monocytes. The assay can be described thus: Calcium flux in human monocytes. The class given is cell-based. The following applies: for calcium flux: human monocytes, Example 8; for calcium release: freshly prepared human monocytes, up to 250 nM. How it is done:
as §2
The human recombinant chemokines, leukotactin, MlP-1α, three known CKβ8 variants CKβ8(1-99), CKβ8(25-99), CKβ8-1(1-116) and a novel NH2-terminal truncated form of CKβ8-1, CKβ8-1 (25-116) were obtained from R&D Systems (Minneapolis, Minn.). Human monocytes were generated from buffy coats (Stanford Blood Center, Palo Alto, Calif.) following a standard protocol. Briefly, PBMC were isolated by standard density gradient centrifugation (Ficoll-Paque-Plus, Pharmacia). Monocytes were purified using CD14 Microbeads (Miltenyi, Auburn, Calif.) magnetic positive selection. Human neutrophils were isolated from fresh peripheral blood from healthy individuals by gradient centrifugation on Ficoll-Hypaque (Hyclone, Calif.).
The activity of the CCL23 variants was tested on freshly prepared human monocytes and neutrophils using the calcium flux test described in Example 1.
Human monocytes were either generated from buffy coats (Stanford Blood Center, Palo Also, Calif.) or from fresh blood of healthy individuals following a standard protocol. Briefly, PBMC were isolated by a Ficoll-Paque gradient centrifugation (Ficoll-Paque-Plus, Pharmacia). Monocytes were purified by CD14 Microbeads (Miltenyi) magnetic positive selection. Human neutrophils were isolated from fresh blood by dextran sedimentation and gradient centrifugation Ficoll-Paque gradient centrifugation. All cells were washed and resuspended (1×10^7/ml) in RPMI medium with 10% FBS.
as §1

Read-outs that look alike come from different tables or passages of the source. Ends that are not written are not given here.

On to MLWRRKIGPQMTLSHAAG [SEQ ID NO: 1], for which the calcium flux entry in assay [1] is given as “partially active”. Further, in assay [2], the “Designation and FPRL1 Activity” value is “high”; the “Notes: activity” value is given as “high”. Further, the calcium flux entry in assay [3] is given as “robust calcium flux”.

MLWRRKIGPQMTLSHAAY [SEQ ID NO: 6]: the calcium flux entry in assay [1] was “partially active”. In addition, in assay [2], the “Designation and FPRL1 Activity” value is “high”; the “Notes: activity” value was “high”. Further, in assay [3], the calcium flux result is “robust calcium flux”.

B1: CKβ8-1(1-116): alternatively spliced form of CKβ8, 116 amino acids, human recombinant chemokine (protein, listed as Homo sapiens)
chain: RVTKDAETEFMMSKLPLENPVLLDMLWRRKIGPQMTLSHAAGFHATSADCCISYTPRSIPCSLLESYFETNSECSKPGVIFLTKKGRRFCANPSDKQVQVCMRMLKLDTRIKTRKN
Consider B1, for which the “calcium release / mobilization” value is “no activity” in assay [2] and “did not give significant mobilization” in assay [2] (listed as CKβ8(1-116)). Moreover, the calcium release entry in assay [3] is recorded as “poor activity”.

B2: CKβ8-1(25-116): novel NH2-terminal truncated form of CKβ8-1, SEQ ID NO: 16, human recombinant chemokine (protein, listed as Homo sapiens)
chain: MLWRRKIGPQMTLSHAAGFHATSADCCISYTPRSIPCSLLESYFETNSECSKPGVIFLTKKGRRFCANPSDKQVQVCMRMLKLDTRIKTRKN
On to B2, for which the calcium flux entry in assay [1] is “induces Ca^2+ release”; in assay [1] (listed as CKβ8-1 (25-116)), “partially active”; in assay [3], “robust calcium flux”. The figures for the “calcium release / mobilization” value in assay [2] and in assay [2] (listed as CKβ8(25-116)) were “stimulated calcium release” and “induced calcium mobilization”, respectively. Further, the calcium release entry in assay [3] is “unique calcium flux with extended calcium release”. In addition, the “maximal receptor stimulation compared with leukotactin” value in assay [3] (monocytes, 100 nM) is on record as “at least two fold higher”.

B3: CKβ8(25-99): known truncated CKβ8 variant, human recombinant chemokine from R&D Systems (protein, listed as Homo sapiens)
chain: RFHATSADCCISYTPRSIPCSLLESYFETNSECSKPGVIFLTKKGRRFCANPSDKQVQVCMRMLKLDTRIKTRKN
In the case of B3, the calcium release result in assay [3] was “slightly higher calcium stimulation”.
